According to CN115368464A (HEFEI TIANGANG IMMUNOLOGY PHARMACEUTICAL CO LTD, dated 2022):

Molecular target: T1, CD33蛋白 (SEQ ID NO:27) on CHO-K1-CD33 / A375-CD33 cells (Homo sapiens (Human), UniProt P20138 18-364)
T1 construct: also called CHO-K1-CD33细胞; A375-CD33细胞
Experiment: flow cytometry on CHO-K1-CD33 cells, Alexa-647 anti-human Fc

T1 sequence (P20138 18-364 limits assumed): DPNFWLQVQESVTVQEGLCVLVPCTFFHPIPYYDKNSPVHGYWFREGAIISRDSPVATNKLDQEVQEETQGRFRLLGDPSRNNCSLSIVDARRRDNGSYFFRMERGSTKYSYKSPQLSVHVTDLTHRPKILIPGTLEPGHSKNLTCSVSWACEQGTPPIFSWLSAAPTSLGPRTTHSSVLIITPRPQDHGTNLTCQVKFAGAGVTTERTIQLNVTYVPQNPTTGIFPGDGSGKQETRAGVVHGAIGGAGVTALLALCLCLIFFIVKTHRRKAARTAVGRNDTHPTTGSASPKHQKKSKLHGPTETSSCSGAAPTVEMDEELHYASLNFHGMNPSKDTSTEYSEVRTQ

B1: CD3×CD33双特异性抗体 (bispecific antibody, human IgG1, kappa, L234A L235A)
chain: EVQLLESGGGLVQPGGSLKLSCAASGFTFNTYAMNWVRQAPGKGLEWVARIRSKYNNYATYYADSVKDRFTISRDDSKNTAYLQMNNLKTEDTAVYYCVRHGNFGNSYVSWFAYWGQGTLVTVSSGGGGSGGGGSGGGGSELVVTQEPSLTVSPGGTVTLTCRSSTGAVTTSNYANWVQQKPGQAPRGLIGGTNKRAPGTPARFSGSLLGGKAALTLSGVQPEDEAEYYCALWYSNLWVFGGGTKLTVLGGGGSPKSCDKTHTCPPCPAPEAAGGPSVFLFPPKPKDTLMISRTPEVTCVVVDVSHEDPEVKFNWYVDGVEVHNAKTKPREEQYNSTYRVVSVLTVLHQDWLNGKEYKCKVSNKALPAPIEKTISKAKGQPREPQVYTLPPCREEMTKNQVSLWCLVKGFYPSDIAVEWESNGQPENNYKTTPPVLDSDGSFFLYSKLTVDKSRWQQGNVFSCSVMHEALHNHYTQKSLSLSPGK
heavy: EVQLVQSGAEVKKPGSSVKVSCKASGYTITDSNIHWVRQAPGQSLEWIGYIYPYNGGTDYNQKFKNRATLTVDNPTNTAYMELSSLRSEDTAFYYCVNGNPWLAYWGQGTLVTVSSASTKGPSVFPLAPSSKSTSGGTAALGCLVKDYFPEPVTVSWNSGALTSGVHTFPAVLQSSGLYSLSSVVTVPSSSLGTQTYICNVNHKPSNTKVDKKVEPKSCDKTHTCPPCPAPEAAGGPSVFLFPPKPKDTLMISRTPEVTCVVVDVSHEDPEVKFNWYVDGVEVHNAKTKPREEQYNSTYRVVSVLTVLHQDWLNGKEYKCKVSNKALPAPIEKTISKAKGQPREPQVCTLPPSREEMTKNQVSLSCAVKGFYPSDIAVEWESNGQPENNYKTTPPVLDSDGSFFLVSKLTVDKSRWQQGNVFSCSVMHEALHNHYTQKSLSLSPGK
light: DIQLTQSPSTLSASVGDRVTITCRASESLDNYGIRFLTWFQQKPGKAPKLLMYAASNQGSGVPSRFSGSGSGTEFTLTISSLQPDDFATYYCQQTKEVPWSFGQGTKVEVKRTVAAPSVFIFPPSDEQLKSGTASVVCLLNNFYPREAKVQWKVDNALQSGNSQESVTEQDSKDSTYSLSSTLTLSKADYEKHKVYACEVTHQGLSSPVTKSFNRGEC
notes: Fc is human IgG1 with L234A/L235A; also called 抗体CD3×CD33; CD3×CD33双特异抗体
binding result: binds
